Tests used:
[1] = biological target: T1, GST-NST2 (Arabidopsis thaliana) (UniProt Q9M274); experiment: EMSA; conditions: 10 mM Tris pH 7.5, 50 mM KCl, 1 mM DTT, 2.5% glycerol, 5 mM MgCl2, 0.1% IGEPAL CA-630, 0.05 ug/ul calf thymus DNA, 150 ng protein, 30 min room temperature
T1 sequence: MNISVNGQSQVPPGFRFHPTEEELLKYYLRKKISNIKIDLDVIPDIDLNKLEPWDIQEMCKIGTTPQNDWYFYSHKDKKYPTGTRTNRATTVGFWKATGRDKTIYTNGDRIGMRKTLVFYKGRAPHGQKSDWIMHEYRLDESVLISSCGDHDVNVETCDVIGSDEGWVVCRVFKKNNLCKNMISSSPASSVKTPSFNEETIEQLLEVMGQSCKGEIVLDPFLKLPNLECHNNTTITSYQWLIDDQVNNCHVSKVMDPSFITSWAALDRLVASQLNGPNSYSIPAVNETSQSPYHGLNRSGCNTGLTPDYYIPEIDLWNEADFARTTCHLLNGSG

[2] = biological target: T2, GST-SND1 (NST3) (Arabidopsis thaliana) (UniProt Q9LPI7); experiment: EMSA; conditions: 10 mM Tris pH 7.5, 50 mM KCl, 1 mM DTT, 2.5% glycerol, 5 mM MgCl2, 0.1% IGEPAL CA-630, 0.05 ug/ul calf thymus DNA, 150 ng protein, 30 min room temperature
T2 sequence: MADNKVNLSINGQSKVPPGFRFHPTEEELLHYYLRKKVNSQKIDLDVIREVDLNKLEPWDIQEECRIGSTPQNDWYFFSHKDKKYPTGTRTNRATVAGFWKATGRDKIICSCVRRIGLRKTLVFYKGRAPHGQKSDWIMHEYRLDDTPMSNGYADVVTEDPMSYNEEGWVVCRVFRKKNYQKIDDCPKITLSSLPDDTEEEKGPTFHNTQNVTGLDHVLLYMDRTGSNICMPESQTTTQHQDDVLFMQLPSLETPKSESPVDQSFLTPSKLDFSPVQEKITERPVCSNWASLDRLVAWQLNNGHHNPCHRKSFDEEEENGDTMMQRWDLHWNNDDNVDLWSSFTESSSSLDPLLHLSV

| Sequence | binding [1] | binding [2] |
| --- | --- | --- |
| CCAGATTTGGTAAAGTTTATAAGATACAAAATATTAAGTAAGACTAAAGTAGAAATACATAATAACTTGAAAGCTACTCTAAGTTATACAAATTCTAAAGAACTCAAAAGAATAAC (double strand) [CESA4Bay-C] | binds | binds |
| GAAAGCTACTCTAAGTTATACAAATTCTAAAGAACTCAAAAGAATAACAAACAGTAGAAGTTGGAAGCTCAAGCAATTAAATTA (double strand) [CESA4Bay-D] | no binding | no binding |
| GAAAGCTACTCTAAGTTATACAAATTCTAAAGAACTCAAAAGAATAACAAACAGTAGAAGTTGGAAGCTCAAGCAATTAAATTA (double strand) [CESA4Sha-D] | no binding | no binding |
| GTTGGAAGCTCAAGCAATTAAATTATATAAAAACACTAACTACACTGAGCTGTCTCCTTCTTCCACCAAATCTTGTTGCTGTCTCTTGAAGCTTTCTTATGACAC (double strand) [CESA4Bay-E] | binds | binds |
| GTTGGAAGCTCAAGCAATTAAATTATATAAAAACACTAACTACACTGAGCTGTCTCCTTCTTCCACCAAATCTTGTTGCTGTCTCTTGAAGCTTTCTTATGACAC (double strand) [CESA4Sha-E] | binds | binds |
